The source of these data is patent US20110262447A1.

The assay addresses wild-type p53 core domain (human) (UniProt P04637). Briefly: ELISA, plates coated with recombinant core domain.

wild-type p53 core domain (human), sequence (P04637 94-312): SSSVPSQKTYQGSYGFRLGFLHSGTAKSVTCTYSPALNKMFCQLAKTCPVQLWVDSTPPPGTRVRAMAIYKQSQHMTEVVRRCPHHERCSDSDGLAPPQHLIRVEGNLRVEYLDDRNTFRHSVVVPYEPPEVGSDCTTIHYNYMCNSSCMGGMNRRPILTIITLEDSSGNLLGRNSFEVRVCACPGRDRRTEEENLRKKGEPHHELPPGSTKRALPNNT

Take mAb 1620 (antibody): the O.D. is 1.2 O.D.
